According to patent US20240294647A1:

Legend:
[1] = target: human CD16A-158V ECD fused to monomeric Fc (human) (UniProt P08637); assay: SPR (Biacore T200), receptor captured, 1:1 model
[2] = target: human CD16A-158F ECD fused to monomeric Fc (human) (UniProt P08637); assay: SPR (Biacore T200), receptor captured, 1:1 model
Chain of human CD16A-158F ECD fused to monomeric Fc (human) (P08637 17-208): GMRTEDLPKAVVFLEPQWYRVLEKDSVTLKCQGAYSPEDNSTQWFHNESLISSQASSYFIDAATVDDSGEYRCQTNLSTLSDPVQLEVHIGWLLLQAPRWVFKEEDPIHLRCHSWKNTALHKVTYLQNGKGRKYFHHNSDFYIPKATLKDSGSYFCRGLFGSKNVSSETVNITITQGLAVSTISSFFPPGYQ

Chain of human CD16A-158V ECD fused to monomeric Fc (human) (P08637 17-208 F176V): as the sequence (P08637 17-208) above, with F160V counted along it

Substance | Kd [1] | koff [1] | kon [1] | Kd [2] | koff [2] | kon [2]
human IgG1 Fc (enhanced, S239D/I332E) (antibody) | 0.0135 µM | 0.00639 s⁻¹ | 474000 M⁻¹ s⁻¹ | – | – | –
human IgG1 Fc (silenced, L234F/L235E/D265A) (antibody) | – | – | – | 34.7 µM | 0.71 s⁻¹ | 20400 M⁻¹ s⁻¹
human IgG1 Fc (wildtype) (antibody) | 0.424 µM | 0.00995 s⁻¹ | 23500 M⁻¹ s⁻¹ | 2.72 µM | 0.0675 s⁻¹ | 24800 M⁻¹ s⁻¹
